Assay results reported in patent US20120269814A1 (Amgen, published 2012).
Changes are numbered by the printed parent chain.

T1: rhu-c-Mpl (AA1-490-6H) (human, UniProt P40238 26-490)
T1 construct: Entire 490 amino acid extracellular domain with six C-terminal histidines, expressed in CHO cells; also called recombinant human c-Mpl protein; soluble c-Mpl
T1 sequence: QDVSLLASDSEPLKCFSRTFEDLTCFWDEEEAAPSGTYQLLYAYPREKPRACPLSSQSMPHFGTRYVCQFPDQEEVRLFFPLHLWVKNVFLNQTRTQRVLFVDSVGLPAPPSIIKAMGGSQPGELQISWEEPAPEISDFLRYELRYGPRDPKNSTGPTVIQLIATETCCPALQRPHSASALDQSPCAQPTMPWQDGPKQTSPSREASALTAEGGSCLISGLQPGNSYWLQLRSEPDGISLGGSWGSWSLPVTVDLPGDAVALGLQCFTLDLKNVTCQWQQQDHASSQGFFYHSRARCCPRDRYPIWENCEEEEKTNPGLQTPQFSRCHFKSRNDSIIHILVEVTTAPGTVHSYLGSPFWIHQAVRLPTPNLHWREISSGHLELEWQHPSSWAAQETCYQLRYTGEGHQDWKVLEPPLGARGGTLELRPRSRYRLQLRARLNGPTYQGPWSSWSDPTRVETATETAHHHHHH

T2: human c-Mpl (full length, on cells) (human, UniProt P40238 26-635)
T2 sequence: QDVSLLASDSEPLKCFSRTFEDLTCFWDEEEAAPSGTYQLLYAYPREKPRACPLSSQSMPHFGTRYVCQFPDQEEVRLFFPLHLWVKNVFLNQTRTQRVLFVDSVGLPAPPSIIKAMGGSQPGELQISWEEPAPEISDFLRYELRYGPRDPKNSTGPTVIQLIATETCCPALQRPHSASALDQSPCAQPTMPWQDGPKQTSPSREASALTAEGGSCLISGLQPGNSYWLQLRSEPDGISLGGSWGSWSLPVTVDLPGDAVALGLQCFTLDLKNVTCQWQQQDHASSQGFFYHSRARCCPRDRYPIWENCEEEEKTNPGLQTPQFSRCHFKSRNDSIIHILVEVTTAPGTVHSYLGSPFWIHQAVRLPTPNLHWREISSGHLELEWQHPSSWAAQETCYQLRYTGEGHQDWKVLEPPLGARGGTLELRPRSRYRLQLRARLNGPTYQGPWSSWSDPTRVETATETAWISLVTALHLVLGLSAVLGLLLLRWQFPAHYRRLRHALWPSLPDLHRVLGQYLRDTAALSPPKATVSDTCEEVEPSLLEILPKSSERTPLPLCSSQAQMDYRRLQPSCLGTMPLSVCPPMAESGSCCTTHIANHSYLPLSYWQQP

B1: mAb 1.75 (antibody, IgG2b, V domains shown)
VH: EVQLVESGGGLVQPKGSLKLSCAASGFSFNTYAMNWVRQAPGKGLEWIAHIRSKSNNFATYYADSVKDRFSISRDASENILFLQMNNLKTEDTAMYYCVRQGGDFPMDYWGQGTSVTVSS
VL: QIVLTQSPAIMSASPGEKVTISCSASSSVSYMYWYQQKPGSSPKPWIYRTSNLASGVPARFSGSGSGTSYSLTISNMEAEDAAAYYCQQYHSYPTTFGGGTKLEVK
notes: also called A2
B2: mAb 1.111 (antibody, IgG1, V domains shown)
VH: DVQLQESGPGLVKPSQSLSLTCTVTGYSITIDYTWNWIRQFPGNKLEWMGYITYSGSTDYNPSLKSRSSITRDTSMNQFFLQLNSVTTEDTATYYCARLGRRYALDYWGQGTSVTVSS
VL: DIQMTQSSSSFSVSLGDRVTITCKASEDIYIRLAWYQQKPGNAPRLLISAATSLETGIPSRFSGSGSGEDYTLTITSLQTEDVATYYCQQYWTTPWTFGGGTKLEIKR
notes: also called A4
B3: mAb 1.6 (antibody, IgG2b, V domains shown)
VH: B2 VH with I31S, D59S, S68N, M76K, A104T, L105M
VL: DIQMTQSSSSFSVSLGDRVTITCMASEDIYIRLAWYQQKPGNAPRLLISAATSLETGVPSRFSGSGSGKDYTLSITSLQTEDVGTYYCQQYWSSPWTFGGGTKLEIN
notes: An Alexa Fluor 647 conjugate was used for CD34+ cell staining; also called Ab 1.6.1; A1
B4: mAb 1.169 (antibody, IgG1, V domains shown)
VH: QVQLQQSGPELVKPGASVKISCKASGYGFSSSWMNWVKQRPGKGLEWIGRIYPGDGETSYNGEFKGKATLTADKSSSTAYMQLSSLTSEDSAVYFCASYYEGGYWGQGTLVTVSA
VL: DIVMTQAAPSLPVTPGESVSISCRSSKSLLHSNGNTYLFWFLQRPGQSPHLLIYRMSNLASGVPDRFSGSGSGTAFTLRISRVEAEDVGVYYCMQHLEYPYTFGGGTKLEIKR
notes: also called A6
B5: mAb 1.78 (antibody, IgG1, V domains shown)
VH: B4 VH with I20M, G28A, M34L, K38R, T58N, S59H, E63K, A79G, V111I
VL: DIVMTQAAPSIPVTPGESVSISCRSDKSLLHSNGNTYLFWFLQRPGQSPQLLIYRMSNLASGVPDRFSGSGSGTAFTLRISGVEAEDVGVYYCMQHLEYPYTFGGGTKLEIK
notes: also called A3
B6: mAb 1.36 (antibody, IgG1, V domains shown)
VH: QVQLQQSGPELVKPGASVKISCKASGYGFSNSWMNWVRQRPGKGLEWIGRIYPGDGETSYNGEFVGKATLTADKSSSTAYMHLSSLTSEDSAVYFCASYYEGGYWGQGTLVTVS
VL: B4 VL with L11V, F39Y, H50Q
notes: also called A5

The binders below were run against T1, rhu-c-Mpl (AA1-490-6H) (assay: solution-equilibrium Biacore with soluble rhu-c-Mpl, KinExA Pro fit).
Procedure: The affinities of these anti-c-Mpl mAbs to the soluble c-Mpl protein were determined in a solution-based Biacore analysis. Briefly, a fixed amount of rhu-c-Mpl was incubated with various concentrations of anti-c-Mpl mAbs at room temperature for ˜4 hours before being run over the same anti-c-Mpl mAbs immobilized at high density on a CM5 surface. In this assay the binding signal is proportional to the concentration of free rhu-c-Mpl at equilibrium with a given antibody concentration. The dissociation equilibrium constant (KD) was obtained from nonlinear regression of the competition curves using an n-curve one-site homogeneous binding model (KinExATM Pro software).

**Q.** For B1, which Kd is on record?
**A.** 0.01 nM

**Q.** Which Kd does the source give for B2 here?
**A.** 0.036 nM

**Q.** B3 was tested. Which Kd did it give?
**A.** 0.036 nM

**Q.** How did the Kd turn out when B4 was run?
**A.** 0.48 nM

**Q.** B5 was tested. Which Kd did it give?
**A.** 0.072 nM

**Q.** With B6 as the binder, how does the Kd read?
**A.** 0.45 nM

Each binder was assayed against T2, human c-Mpl (full length, on cells) (assay: cell-based or functional assay).

**Q.** With B4 as the binder, how does the “IC50 (nM), inhibition of rhuTPO (26 pM)-driven proliferation of 32D-hu-c-Mpl cells (CellTiter-Glo)” value (“IC50 (nM), inhibition of rhuTPO” below) read?
**A.** 5.32 nM

**Q.** B5 was tested. Which “IC50 (nM), inhibition of rhuTPO” value did it give?
**A.** 0.23 nM

**Q.** How did the “IC50 (nM), inhibition of rhuTPO” value turn out when B6 was run?
**A.** 1.25 nM

Target: T2, human c-Mpl (full length, on cells)
Test: cell-based or functional assay
Remark: another data set of the same source

**Q.** For B1, which “IC50 (nM), inhibition of rhuTPO” value is on record?
**A.** 0.05 nM

**Q.** For B2, which “IC50 (nM), inhibition of rhuTPO” value is on record?
**A.** 0.12 nM

**Q.** How did the “IC50 (nM), inhibition of rhuTPO” value turn out when B3 was run?
**A.** 0.03 nM
